Measurements from the supplement of paper PMC10126150.
± gives the standard deviation of the averaged measurements.

Tested on: ATP
Assay: switch fluorescence ratio, 500 uM ATP over buffer (Cy3 cluster intensity, sum of 5 cycles each) (fold (ratio)); higher = stronger signal-on switching upon ATP binding; sequences stand for … in TCGTCGGCAGCGTCAGATGTGTATAAGAGACAGTTTTTTTTTTTTTTTTTTTTTTTTT…TC
Conditions: aptamer strand: ATP DNA aptamer (quencher-CACCTGGGGGAGTATTGCGGAGGAAGG + anchor), 100 nM annealed; ATP concentration: 500 uM
In short: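 Between each of five buffer/ATP cycles, the flow-cell was stripped with NaOH and re-annealed. Each cycle imaged Cy3-labelled switching-strand clusters, annealed to 100 nM quencher-labelled ATP aptamer on a modified Illumina MiSeq flow-cell, first in selection buffer and then after 15 min with 500 uM ATP at 22 °C. The fluorescence ratio is summed target-cycle over summed buffer-cycle Cy3 intensity per cluster, averaged per switch-domain sequence, with clusters outside 100-1000 RFU excluded.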
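Also: ATP exposure 15 min at 22 °C before imaging.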

Sequence	switch fluorescence ratio
GGCCCCTTTT	1.021 ± 0.0053
AAAATTGGGC	1.08 ± 0.02
GCCCTGAGCA	1.01 ± 0.026
TTGCCTTTTT	0.998 ± 0.028
GGGGGGTCTA	1.02 ± 0.024
GGTCCAGGTC	1.12 ± 0.057
CTAGTTGGTT	0.971 ± 0.028
GAAAGGATTA	0.995 ± 0.063
GGATTTATAA	0.9961 ± 0.0011
AGGGTTCTGG	0.971 ± 0.028
CGTGGGTGGT	1.0181 ± 0.00048
AACGGTTTAA	1.05 ± 0.014
ATAATGGCCT	1.02 ± 0.026
TTTGCAAAGG	1.007 ± 0.0022
CCTACTTCCA	1.103 ± 0.0013
ATGAGTGGAG	1.034 ± 0.004
GATAAAGTTA	0.992 ± 0.013
TGTGGGGCTG	1.02 ± 0.08
ACATTTGTGG	1.01 ± 0.021
AACGTGCGTG	0.9973 ± 0.0028
TGTAACGCTG	0.974 ± 0.057
CCTGTTAAAT	1.05 ± 0.022
AATTTTGCGG	1.01 ± 0.038
TTTCCACAT	0.9719 ± 0.0091
CATAGGTCTA	0.996 ± 0.019

Sequence	switch fluorescence ratio
GCCGGACAGT	1 ± 0.017
TCTTAGGCGC	1.03 ± 0.029
CGTTAGAATC	1.014 ± 0.0082
GGTGCTATCT	0.992 ± 0.015
TGATATCCGA	1.04 ± 0.013
TTTTGTACGG	1.01 ± 0.018
GCGTCAGGAT	1.0442 ± 0.00058
AAGGTTGGTC	1 ± 0.027
TCCTCAAATG	1.607 ± 0.002
TGATGGCGTT	1 ± 0.031
TTCATGGTAT	0.991 ± 0.031
CTTTTTTTAG	1.0383 ± 0.001
ACCAGGTGGG	2.75 ± 0.75
GGAGGATGGG	1 ± 0.014
GTGTTCGGCG	1.07 ± 0.066
TATGTGGGAA	1.01 ± 0.062
CTTTGGCGCC	0.986 ± 0.014
GGCCGGGGTG	1.18 ± 0.032
GAGGGCGTCA	0.995 ± 0.027
GGCCTTCGGG	0.972 ± 0.053
TCCGGGGCGG	1.11 ± 0.06
CACCTAGTTT	1.01 ± 0.052
ATGTGTTCGG	0.98 ± 0.0064
GGGTTAGTTG	0.995 ± 0.046
GCGAGGGGGT	0.979 ± 0.054

Sequence	switch fluorescence ratio
CTAACATTTT	1.01 ± 0.018
TTTTTTAAAA	0.995 ± 0.03
ATGTTAGGGG	0.981 ± 0.041
ACTGGGGGTG	1.07 ± 0.086
AGGGATTGAA	0.9875 ± 0.0022
GACCGGGCTT	0.9753 ± 0.0038
TAGGAATGTT	0.9659 ± 0.0022
GGGTGGGTTA	1.01 ± 0.038
TTTTAGGGCG	0.976 ± 0.048
ATATATATGG	1.03 ± 0.035
GCGGGGGCAA	1.0292 ± 0.00013
GTTGGGGAGC	1.005 ± 0.0066
AGGTAAGGGT	0.974 ± 0.035
ACTTCTCGGT	0.992 ± 0.017
GGGAGTAGAC	1.02 ± 0.045
TTACGGGGTT	0.988 ± 0.035
GGTGTCAGGG	0.989 ± 0.013
GCCGGGTTGA	1.03 ± 0.048
TATGGGCAGC	1.03 ± 0.018
ACATGGGTGC	1.11 ± 0.063
CGGTCTATAG	1.02 ± 0.053
TCAACTTTTT	1.01 ± 0.02
CAGGGGTACG	0.991 ± 0.042
ATCGGGGTCC	1.02 ± 0.019
CACATAGTTT	1.03 ± 0.023

Sequence	switch fluorescence ratio
CGGAGAAGGG	0.974 ± 0.029
TAGGGTGTCA	1.03 ± 0.047
AAGTCTGGGG	1.01 ± 0.027
GGATATTTGG	0.992 ± 0.029
CATAGATTTT	0.98896 ± 0.00042
AGGGAGGCGG	0.974 ± 0.032
CTTTTCTTGG	0.991 ± 0.03
TAAGTTGGGA	0.98 ± 0.031
AGGGTGCTCG	1.02 ± 0.047
GAAGGGGTGT	1.01 ± 0.031
CGTGATTTGG	1.006 ± 0.0065
GCTAAAACCG	1.06 ± 0.052
CGGGCTTTAT	1.006 ± 0.0073
ATTAGGGTTA	0.9928 ± 0.0088
AGTATCCAAA	0.999 ± 0.027
GCTTATAGGC	0.97 ± 0.032
GTTAAGTAGC	0.971 ± 0.025
ATTCGTATAT	0.969 ± 0.051
GGTGCTACAC	1.04 ± 0.025
GTCAGGAGGG	0.971 ± 0.026
TGGGAATCAC	1.05 ± 0.017
AAATATATCT	0.987 ± 0.012
TTTTTGTGTG	0.993 ± 0.023
ATGAATCTTG	1.02 ± 0.032
GCTCGAAGTT	0.978 ± 0.029

Sequence	switch fluorescence ratio
GGGATGCTCT	1.01 ± 0.017
AATGGAGGGA	0.974 ± 0.011
TGATTTTTAT	1.011 ± 0.0089
GTTCCTATGA	1.01 ± 0.043
CGCATGAGGC	1.18 ± 0.045
GAGTGTTAGG	0.996 ± 0.013
GATAATATTT	0.986 ± 0.011
TTTACTTGTG	1.01 ± 0.035
AAACAGCCGG	1.03 ± 0.0074
AAGGAGGGGT	0.9968 ± 0.0081
GAGAAATTCC	1.07 ± 0.021
AGCTTGGGAA	0.9627 ± 0.0063
GGTACTGGTA	0.984 ± 0.057
TAACACTAGC	1.011 ± 0.0037
AGTCTAAGTG	0.956 ± 0.021
TAGGTTTGCC	1.08 ± 0.021
GGTAGAGGTT	0.985 ± 0.019
GACACCAAAT	1.039 ± 0.0035
ACAGCCCGGA	1.07 ± 0.04
TTGAGGTATG	0.9838 ± 0.0046
AGACTGTTAG	0.976 ± 0.029
CAGATTTTGA	0.9804 ± 0.0045
AGTTTCGGTC	1 ± 0.028
TTTAGGTACT	1.25 ± 0.34
TGGAACGGAG	0.98 ± 0.021

Sequence	switch fluorescence ratio
TTGAAGTTAG	0.99 ± 0.02
TGGGGTTGTA	1.01 ± 0.056
AGAGTGGGTG	0.978 ± 0.013
ATTGGTTTCG	0.9835 ± 0.0051
ATTTGGATCT	0.9725 ± 0.0068
GGGGTAGCGC	0.974 ± 0.018
AGTGGGGGTG	1.03 ± 0.043
TCTGTTGCAG	0.999 ± 0.024
TAGGGGGCGG	0.988 ± 0.03
CCTTAACGGC	1.06 ± 0.015
GGGTATGTAA	1.01 ± 0.066
CGTAAAACTA	1.03 ± 0.042
GACGGGGCAG	0.995 ± 0.015
GTTGTAGGGT	0.976 ± 0.022
GATTAGGGGA	1.01 ± 0.015
CCAGGTGTTG	3.12 ± 0.44
TACTTGTTTT	1 ± 0.033
GGTGTTTGTT	0.956 ± 0.065
CGGTGGGACG	1.02 ± 0.022
TGGTAAATAT	1.01 ± 0.013
CGGAGAGAGG	1.01 ± 0.015
TAATTGGCAA	1.004 ± 0.0017
TTAGCTGTGC	1.02 ± 0.067
ATGGGTTCAG	0.969 ± 0.0045
GTTTAAGTTC	0.988 ± 0.017

Sequence	switch fluorescence ratio
AGCTCGGTCG	0.963 ± 0.017
CTGATTCCTG	1.01 ± 0.04
TAGAATGGCT	0.9907 ± 0.0057
GGGCTGTGTG	1.02 ± 0.035
CTCTTGGGAA	0.992 ± 0.014
TGCATACGGC	1.04 ± 0.07
GGTTTAGCTG	0.984 ± 0.041
TGATGATTTC	1.009 ± 0.009
ATCGTTGCGG	1.1 ± 0.099
TTTCTTTGTT	1.04 ± 0.096
CCACACCATT	1.058 ± 0.004
TTACCGACGG	1.1 ± 0.069
TGTTAGTCTG	1.03 ± 0.032
GTTAGTAGTG	0.952 ± 0.022
CTAATTAAGT	0.973 ± 0.028
GACCTATTTC	1.01 ± 0.019
TTTCGCATTT	1.14 ± 0.013
CAGGGCTTAG	1.01 ± 0.035
AGCCAGGTGG	1.27 ± 0.14
ATGTAGGGAG	0.998 ± 0.017
AGGGTAAGTC	0.972 ± 0.043
GGGGGATTGA	1.0228 ± 0.00054
GGTGTGTGAG	0.965 ± 0.01
GGCTCCGGTT	1.19 ± 0.084
GATATTTTTT	0.989 ± 0.012

Sequence	switch fluorescence ratio
TCAAACTTAT	1.05 ± 0.027
ATCACGTCTA	1.024 ± 0.003
CTGGATTGGG	0.98 ± 0.028
GGCTTATTGG	0.969 ± 0.016
ACGGTGTTGG	1.02 ± 0.021
ATTGAGTAA	0.976 ± 0.025
TTCGCTGCCT	1.03 ± 0.019
AGGATGGTTC	0.9541 ± 0.0016
GACGACGTTG	1.06 ± 0.026
GGGCTTTCTC	1.09 ± 0.055
TTTAGTTCCG	0.935 ± 0.025
GTAGATTGG	0.9872 ± 0.0035
CCGGGGGCTT	1.22 ± 0.019
GTTCAGTTTG	1.03 ± 0.031
ATAAGTGGG	0.983 ± 0.018
GGAAGGGTTT	1.03 ± 0.061
ACACCTGAGT	1.16 ± 0.011
GGCAATCCCA	1.03 ± 0.012
GGGAAAAGGC	1.02 ± 0.035
CGCCCAAAGG	1.13 ± 0.11
TCTCTATTT	0.965 ± 0.048
CTGTAATGGT	1.04 ± 0.061
GATGGTGGTG	1 ± 0.029
TGCATGGAGC	0.9946 ± 0.0042
GAAAAAGCCG	1.014 ± 0.0078
